In the assay the target is SARS-CoV-2 receptor-binding domain (RBD) (SARS-CoV-2, UniProt P0DTC2). Description: SPR. Background: In SPR one partner is held on a chip, and binding of the other changes the refractive index at the surface.

B1: 7D6 monoclonal antibody (antibody, V domains shown)
VH: EVQLQQSGAELVRPGASVKLSCTASGFNIKDTYIHWVKQRPEQGLEWIGRIDPGDGDTEYDPSFQGKATITADTSSNTAYLELSSLTSEDTAVYYCTRFYDYVDYGMDYWGQGTSVTVSS
VL: DIQMTQSPASLSASVGETVTITCRASGNIHNYLAWYQQKQGKSPQLLVYNAKTLADGVPSRFSGSGSGTQYSLKINSLQPEDFGSYYCQHFWSTPPWTFGGGTKLEVK
For B1, binding was characterised by a dissociation constant (Kd) of 3 pM.

Usually Kd stands for the concentration at which binding is half-saturated. A lower Kd goes with higher affinity.

The values are drawn from paper PMC8476643 (2021).
